Laboratory results reported in paper PMC13580404 (Molecular cell, 2026).

Legend:
Assay in all cases: ITC; RPN13 Pru in the cell (15.6, 20.57 or 16 μM), RPN2 (940–953) in the syringe; 25°C; 20 mM sodium phosphate, 50 mM NaCl, pH 6.0, with 10 mM βME (reducing) or without (non-reducing); one-site fit
Conditions in all cases: both partners purified
[1] = molecular target: T1, oxidized RPN13 Pru (1–150) (UniProt Q16186 1-150, oxidized with 0.05% H2O2; the residues are not told)
T1 construct: RPN13 Pru domain, residues 1-150; also called oxi RPN13^Pru; oxi-RPN13^Pru; source: E. coli BL21(DE3) pLysS, purified; oxidized with 0.05% H2O2 on ice for 10 min; not shown: His6, N-terminal, cleaved

[2] = molecular target: T2, oxidized RPN13 Pru (1–150) after incubation with TXNL1^Trx (UniProt Q16186 1-150, oxidized with 0.05% H2O2, then restored by a 3-fold molar excess of TXNL1 Trx; the residues are not told)
T2 construct: RPN13 Pru domain, residues 1-150; source: E. coli BL21(DE3) pLysS, purified; not shown: His6, N-terminal, cleaved

[3] = molecular target: T3, RPN13 Pru (1–150), reduced (UniProt Q16186 1-150)
T3 construct: also called RPN13 (1–150); redu RPN13^Pru; source: E. coli BL21(DE3) pLysS, purified (Talon resin, PreScission cleavage, Superdex 75); not shown: His6, N-terminal, cleaved
T3 sequence (Q16186 1-150): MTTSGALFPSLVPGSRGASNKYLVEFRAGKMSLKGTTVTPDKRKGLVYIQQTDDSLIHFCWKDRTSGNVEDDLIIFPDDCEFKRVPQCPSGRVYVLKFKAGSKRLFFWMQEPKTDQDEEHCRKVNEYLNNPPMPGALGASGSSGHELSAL

T1 sequence (Q16186 1-150): as above
T2 sequence (Q16186 1-150): as above

B1: RPN2 (940–953) (peptide, UniProt Q99460 940-953, looked up)
chain: QEPEPPEPFEYIDD
notes: Eluted from the resin as GST-RPN2 (940–953); also called RPN2 peptide; GST-RPN2 (940–953); source: E. coli BL21(DE3) pLysS, purified (glutathione resin, eluted with reduced glutathione, Superdex 75)
B1 was tested. Which Kd [1] did it give?
The Kd was 40 ± 15.3 nM.

What about the Kd [2] of the same binder?
Its Kd is 18.9 ± 5.7 nM.

What about the Kd [3] of the same binder?
Its Kd is 12.4 ± 5.29 nM.
